For two sequences, Kd results are on record in publication PMC10870365, “Dissection of protein and RNA regions required for SPEN binding to XIST A-repeat RNA”.

This data set concerns the target T1, SPEN RRM 2-3 (Homo sapiens) (UniProt Q96T58).
T1 sequence: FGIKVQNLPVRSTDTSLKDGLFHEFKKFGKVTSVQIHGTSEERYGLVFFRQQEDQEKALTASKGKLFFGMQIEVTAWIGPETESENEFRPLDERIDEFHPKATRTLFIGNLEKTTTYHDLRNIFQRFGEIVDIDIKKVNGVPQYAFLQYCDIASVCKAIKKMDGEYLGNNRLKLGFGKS
Briefly: EMSA. The settings on record: EMSA: 20 mM Tris-HCl pH 7.5, 150 mM KCl, 5 mM MgCl2, 10% glycerol, room temperature 30 min, 2 nM each labeled RNA (multiplexed), 4.5% TBE native gel.

On to “GGGCUGCGGAUACCUGGUUUUAUUAUUUUUUCUUUGCCCAACGGGGCCGUGGAUACCUGCCUUUUAAUUCUUUUUUAUUCGCCCAUCGGGGCCGCGGAUACCUGCUUUUUAUUUUUUUUUCCUUAGCCCAUCGGGGUAUCGGAUACCUGCUGAUUCCCUUCCCCUCUGAACCCCCAACACUCUGGCCCAUCGGGGUGACGGAUAUCUGCUUUUUAAAAAUUUUCUUUUUUUGGCCCAUCGGGGCUUCGGAUACCUGCUUUUUUUUUUUUUAUUUUUCCUUGCCCAUCGGGGCCUCGGAUACCUGCUUUAAUUUUUGUUUUUCUGGCCCAUCGGGGCCGCGGAUACCUGCUUUGAUUUUUUUUUUUCAUCGCCCAUCGGUGCU [XIST A-full]”, for which the Kd (commonly the free concentration of one partner at which half of the binding sites on the other are occupied at equilibrium, for simple one-to-one binding) stood at 1.05 µM.

The sequence “GUACCAGGUAUGUGAUGACAUCAGCCGACGCCUGGCACUGCUGCAGGAACAGUGGGCUGGAGGAAAGUUGUCAAUACCUGUAAAGAAGAGAAUGGCUCUACUGGUGCAAGAGCUUUCAAGCCACCGGUGGGACGCAGCAGAUGACAUCCACCGCUCCCUCAUGGUUGACCAUGUGACUGAGGUCAGUCAGUGGAUGGUAGGAGUUAAAAGAUUAAUUGCAGAAAAGAGGAGUCUGUUUUCAGAGGAGGCAGCCAAUGAAGAGAAAUCUGCAGCCACAGCUGAGAAGAACCAUACCAUACCAGGCUUCCAGCAGGCUUCAUAAUCCUCGGUUCCCCAGACUCACCGGACACCAUCUCCU [SRA]” registered a Kd of 5.57 µM.
